According to patent publication US4770996A, “Identification of individuals predisposed toward alcohol abuse” (priority 1986, dated 1988):

Substrate: NCCc1ccccc1
Experiment: Platelet monoamine oxidase (MAO) assay, deamination of 14C-PEA
Assay type: biochemical, human
Conditions: other: platelets of control subjects; varying PEA; mean±SEM, n=6; 37.0 °C
Method: Platelets were prepared from whole blood (20 ml) which was obtained by venipuncture from healthy volunteers and alcoholic subjects. After standing at room temperature for approximately three to four hours in citrate-phosphate-dextrose solution, each blood sample was centrifuged at 180×G for two minutes. The platelet-rich plasma (PRP) was carefully removed and platelet count was determined from aliquots (20 ul) of the PRP with a Coulter S-plus Thrombocounter. The PRP was centrifuged at 16,000 g for ten minutes. The pellet was resuspended in 50 ml of cold 50 mM Tris-HCl, pH 7.5, containing […] NaCl and 20 mM ethylene diamine tetraacetic acid (EDTA). The centrifugation was repeated twice, and the final pellet was resuspended in 1 ml of cold 5 mM Tris-HCl, pH 7.5, containing 5 mM EDTA. Suspensions were rapidly frozen at -70° C., and samples were stored at -70° C. for no longer than four weeks prior to assay.
To measure the deamination of ^14 C-PEA, assay mixtures (total volume, 0.3 ml) contained approximately 15 ug of platelet protein. Reactions were carried out in 0.1 M sodium phosphate, pH 7.4, at 37° C. […] Two additional ml of water and 20 ml of scintillation fluid were added to each vial, and radioactivity was determined in a liquid scintillation spectrometer. […]

B1: platelet monoamine oxidase (MAO) (Homo sapiens) (protein)
chain: MSNKCDVVVVGGGISGMAAAKLLHDSGLNVVVLEARDRVGGRTYTLRNQKVKYVDLGGSYVGPTQNRILRLAKELGLETYKVNEVERLIHHVKGKSYPFRGPFPPVWNPITYLDHNNFWRTMDDMGREIPSDAPWKAPLAEEWDNMTMKELLDKLCWTESAKQLATLFVNLCVTAETHEVSALWFLWYVKQCGGTTRIISTTNGGQERKFVGGSGQVSERIMDLLGDRVKLERPVIYIDQTRENVLVETLNHEMYEAKYVISAIPPTLGMKIHFNPPLPMMRNQMITRVPLGSVIKCIVYYKEPFWRKKDYCGTMIIDGEEAPVAYTLDDTKPEGNYAAIMGFILAHKARKLARLTKEERLKKLCELYAKVLGSLEALEPVHYEEKNWCEEQYSGGCYTTYFPPGILTQYGRVLRQPVDRIYFAGTETATHWSGYMEGAVEAGERAAREILHAMGKIPEDEIWQSEPESVDVPAQPITTTFLERHLPSVPGLLRLIGLTTIFSATALGFLAHKRGLLVRV
notes: contained approximately 15 ug of platelet protein; from tissue; host or cells: platelets (membranes) from whole blood of volunteers and alcoholic subjects
Km: 1.4 ± 0.2 µM | Vmax: 508±37 pmole/mg protein/minute
